In patent US20240053325A1, “NOVEL SCREENING PLATFORM TO IDENTIFY IMMUNE MODULATORY AGENTS” (PRESIDENT AND FELLOWS OF HARVARD COLLEGE, priority 2020, published 2024):

Legend:
IL-17RA/RC [1] = target: T1, IL-17RA/RC (Mus musculus, UniProt Q60943+Q8K4C2); assay: IL-17RA/RC reporter assay (GFP reporter cells); format: cell-based; details: reporter cells incubated with different amounts for 24 hours
T1 construct: expressed in transfected cells

IL-10R = target: T2, IL-10R (Mus musculus, UniProt Q61190+Q61727, C4S); assay: IL-10 reporter; format: cell-based; details: incubated for 24 hours with different amounts
T2 construct: expressed in transfected cells
Experimental: (§1) IL-10/IFN-γ/TNF-α reporters were incubated for 24 hours with different amounts of IL-10 (FIGS. 5A and 5B), IFN-γ (FIGS. 5C and 5D) or TNF-α (FIGS. 5E and 5F).
(§2) Furthermore, the systems and methods provided herein are applied to generate other cytokine/cytokine receptor reporter system (tTA fused onto one receptor subunit via a protease cleavage site, TEV fused to another receptor subunit, optimal linkers inserted between different proteins to ensure high signal-to-background ratio). The screening platform provided herein are used to identify immune modulatory agents including, but not limited to, small molecules and proteins that modulate cytokine signaling (FIGS. 5A-6F).

[2] = target: IL-17RA/RB reporter (IL-17RA-tTA and IL-17RB-TEV co-expressed in reporter cells) (Mus musculus); assay: cell-based or functional assay
IL-17RA/RB = target: T3, IL-17RA/RB (Mus musculus, UniProt Q60943+Q9JIP3); assay: IL-17RA/RB reporter assay (GFP reporter cells); format: cell-based; details: 24 h stimulation, IL-17A-F 100 ng/ml; for increase of percentage of GFP+ cells / GFP expression (reporter response): TNFa 5 ng/ml
T3 construct: expressed in transfected cells
Experimental: Doxycycline was used as a negative regulator of the GFP reporter. IL-17A-F: 100 ng/ml, TNFa: 5 ng/ml, doxycycline: 1 μg/ml.
Using a similar approach, the inventors have recently also successfully generated the IL-17RA/IL-17RB reporter line (FIG. 4). […] Since IL-17E plays a role in allergy and asthma, small molecules modulators that will be identified using this platform may create a new IP opportunity.

TNFαR1 = target: T4, TNFαR1 (Homo sapiens, UniProt P19438); assay: TNF-α reporter; format: cell-based; details: incubated for 24 hours with different amounts
T4 construct: expressed in transfected cells
Experimental: as §1, §2

IL-17RA/RC [3] = target: T5, IL-17RA/RC (Mus musculus, UniProt Q60943+Q8K4C2, F156E); assay: IL-17RA/RC reporter assay (GFP reporter cells); format: cell-based; details: 24 h stimulation, IL-17A-F 100 ng/ml; for increase of percentage of GFP+ cells / GFP expression (reporter response): TNFa 5 ng/ml
T5 construct: expressed in transfected cells

[4] = target: IL-17RA/RC reporter (IL-17RA-tTA and IL-17RC-TEV co-expressed in reporter cells) (Mus musculus); assay: cell-based or functional assay
IFNγR = target: T6, IFNγR (Mus musculus, UniProt P15261+Q63953); assay: IFN-γ reporter; format: cell-based; details: incubated for 24 hours with different amounts
T6 construct: expressed in transfected cells
Experimental: as §1, §2

Molecule: IL-17F: IL-17 family cytokine
- dose-dependent activation of the GFP reporter (IL-17RA/RC [1]): activate the GFP reporter system in a dose-dependent manner
- dose-dependent activation of the GFP reporter (IL-17RA/RC [1]; listed as IL-17f): to a lesser degree

Molecule: IL-10: cytokine, used to activate the IL-10 reporter
- dose dependent activation of reporter (IL-10R): dose dependent activation

Molecule: IL-17E (ligand)
- percentage of GFP^+ cells (24 h stimulation, 100 ng/ml) [2]: 80%

Molecule: TNFa
- increase of percentage of GFP+ cells / GFP expression (reporter response) (IL-17RA/RB): failed to increase GFP expression
- dose dependent activation of reporter (TNFαR1): dose dependent activation
- increase of percentage of GFP+ cells / GFP expression (reporter response) (IL-17RA/RC [3]): failed to increase GFP expression

Molecule: IL-17A: IL-17 family cytokine; ligand of the IL-17RA/IL-17RC heterodimer
- dose-dependent activation of the GFP reporter (IL-17RA/RC [1]): activate the GFP reporter system in a dose-dependent manner
- dose-dependent activation of the GFP reporter (IL-17RA/RC [1]; listed as IL-17a): activated in a dose-dependent manner
- increase of percentage of GFP+ cells / GFP expression (reporter response) (IL-17RA/RC [3]): responds highly selectively
- percentage of GFP+ cells (IL-17RA/RC [3]; increased from 1%): 60%

Molecule: IL-17A (ligand)
- percentage of GFP^+ cells (24 h stimulation, 100 ng/ml) [4]: 60%

B1: IFN-γ: dimerized soluble cytokine (interferon) that activates interferon gamma receptors (protein, listed as Homo sapiens)
chain: MKYTSYILAFQLCIVLGSLGCYCQDPYVKEAENLKKYFNAGHSDVADNGTLFLGILKNWKEESDRKIMQSQIVSFYFKLFKNFKDDQSIQKSVETIKEDMNVKFFNSNKKKRDDFEKLTNYSVTDLNVQRKAIHELIQVMAELSPAAKTGKRKRSQMLFRGRRASQ
- dose dependent activation of reporter (IFNγR): dose dependent activation

B2: IL-17C: IL-17 family cytokine (protein, UniProt Q9P0M4 19-197, looked up)
Interleukin-17C: HHDPSLRGHPHSHGTPHCYSAEELPLGQAPPHLLARGAKWGQALPVALVSSLEAASHRGRHERPSATTQCPVLRPEEVLEADTHQRSISPWRYRVDTDEDRYPQKLAFAECLCRGCIDARTGRETAALNSVRLLQSLLVLRRRPCSRDGSGLPTPGAFAFHTEFIHVPVGCTCVLPRSV
- dose-dependent activation of the GFP reporter (IL-17RA/RC [1]): not

B3: IL-17E: IL-17 family cytokine; the natural ligand of IL-17RA/RB (protein, UniProt Q9H293 33-177, looked up)
Interleukin-25: YSHWPSCCPSKGQDTSEELLRWSTVPVPPLEPARPNRHPESCRASEDGPLNSRAISPWRYELDRDLNRLPQDLYHARCLCPHCVSLQTGSHMDPRGNSELLYHNQTVFYRRPCHGEKGTHKGYCLERRLYRVSLACVCVRPRVMG
- increase of percentage of GFP+ cells / GFP expression (reporter response) (IL-17RA/RB): responds highly
- percentage of GFP+ cells (IL-17RA/RB; increased from 1%): 80%
